Test results published in paper PMC7949094, “Pantoea stewartii WceF is a glycan biofilm-modifying enzyme with a bacteriophage tailspike-like fold” (The Journal of Biological Chemistry, 2021).

Key:
[1] = biological target: the molecule itself; test: SEC; size-exclusion chromatography of purified WceF (Fig. S2); conditions not shown
[2] = biological target: the molecule itself; test: SDS-PAGE without heating; purified HK620TSP and P22TSP in 2% (w/v) SDS, with or without heating for 5 min
SDS-PAGE without heating = biological target: the molecule itself; test: SDS-PAGE without heating

B1: Pantoea stewartii WceF (residues 29-736, lacking the Tat signal peptide) (enzyme)
chain: KNTGLALKSVDATAIPKGDVPILTPENVYAMPPQFWQNFQGKLWIGRAGSDARQPGNQIPVFLRDANGNLAQITQPITLNKGNFDQFVKDNAALIANPSHAMALEDSNGQTVFNIPDVSQPGQAAFSQRLAQPAGYQLIGEIPSVDDLRKTRPLFEGAKIKLKSWHPGLEVGGGEFVGSFQPAQDDQGVIFSGDGFHWRRVVDDYNRLSLFDFGAIADGKTDSAPAIKAMYQWSQQSDQPICVQFPAGTFFVTGCDFGEEQRRFFRISGAMVNFGYFPATTIVSDGQSPFVFEVSARWVEISNLIFNGNTDTKPNRQGLLRNTCPGGQFFRGACLRFNNVGGTALSLLDTLDCKIDQWYASACTGDVIQAGWSGQKKGNWDHSTAIELSNFNAQHCKGGKVLNLPRCSQSLIHNGWIEHCDNPGDISNGQWIIDALSLEDCKNPLIAWHSRLNTRQTNLQSGSWIDNSEQGDRWLSAWEMGSTRVESYGVAIDGSLKYNYLTSRWLLENNTSQPVWYELANLYSPTVGDSWEIEVFGQSQFNNGTDSEPLMNLIDGRNTGGRAVIHVQRKKDHAEASWSAEGSSPVLDVRYVAKTDTDTQVFIRLAGWTPSAAIMIKSTAKDRFVTGRCARVDAKMAKATPDSGSHAAPQRFSLHNGKAGVGANEQGDLLLASRALSADNVDTRKPEGFVSVVINGKTVALPYFAIKA
notes: WceF of Pantoea stewartii subsp. stewartii DSM 30176, amplified from genomic DNA; recombinant construct residues 29-736 without the N-terminal 28 amino acids of the Tat signal peptide (the methods say aa 28-736); residues 34-736 resolved in the electron density; His6 tag followed by a TEV site, cleaved off for the purified protein; The forward primer encodes ...ENLYFQG-AKNTGL, so a glycine …
- stoichiometry N [1]: 3

B2: bacteriophage P22 tailspike protein (natural protein)
chain: YDPDQYSIEADKKFKYSVKLSDYPTLQDAASAAVDGLLIDRDYNFYGGETVDFGGKVLTIECKAKFIGDGNLIFTKLGKGSRIAGVFMESTTTPWVIKPWTDDNQWLTDAAAVVATLKQSKTDGYQPTVSDYVKFPGIETLLPPNAKGQNITSTLEIRECIGVEVHRASGLMAGFLFRGCHFCKMVDANNPSGGKDGIITFENLSGDWGKGNYVIGGRTSYGSVSSAQFLRNNGGFERDGGVIGFTSYRAGESGVKTWQGTVGSTTSRNYNLQFRDSVVIYPVWDGFDLGADTDMNPELDRPGDYPITQYPLHQLPLNHLIDNLLVRGALGVGFGMDGKGMYVSNITVEDCAGSGAYLLTHESVFTNIAIIDTNTKDFQANQIYISGACRVNGLRLIGIRSTDGQGLTIDAPNSTVSGITGMVDPSRINVANLAEEGLGNIRANSFGYDSAAIKLRIHKLSKTLDSGALYSHINGGAGSGSAYTQLTAISGSTPDAVSLKVNHKDCRGAEIPFVPDIASDDFIKDSSCFLPYWENNSTSLKALVKKPNGELVRLTLATL
notes: also called P22TSP; source: purified
- stoichiometry N [2]: 3

B3: bacteriophage HK620 tailspike protein (natural protein)
chain: DPDQFRAIIESPEGAGHVGYQYRRNTGSTMRMVSDVLDERVSLWDFHCDPSGNVIQPGPNVDSRQYLQAAIDYVSSNGGGTITIPAGYTWYLGSYGVGGIAGHSGIIQLRSNVNLNIEGRIHLSPFFDLKPFQVFVGFDNGDPASSGNLENCHIYGHGVVDFGGYEFGASSQLRNGVAFGRSYNCSVTGITFQNGDVTWAITLGWNGYGSNCYVRKCRFINLVNSSVNADHSTVYVNCPYSGVESCYFSMSSSFARNIACSVELHQHDTFYRGSTVNGYCRGAYVVMHAAEAAGAGSYAYNMQVENNIAVIYGQFVILGSDVTATVSGHLNDVIVSGNIVSIGERAAFSAPFGAFIDIGPDNSGASNVQDIQRVLVTGNSFYAPANITDSAAITLRANLNGCTFIANNFDCRYMVYNAPGTTSPVVQNLVWDKSNVIGGTHANQRAGQNLFDMQFASVVNSTIEVQLSCEDLSMFSCILFPASCQLSYSKITVDSAWTKSMSNTAVFEGNQQAGANVYVSYPATVNLTSYNTQGAVPFFSTDTNYAWVTSAYSLSINENLDFSPPATYTNKANGQLVGVGYNEIGGVRSVSVRLMLQRQV
notes: also called HK620TSP; source: purified
- stoichiometry N (SDS-PAGE without heating): 3
